The text below walks through data of article PMC3564036.

Substrate in this series: Nc1ncnc2c1ncn2[C@@H]1O[C@H](COP(=O)(O)OP(=O)(O)O)[C@@H](O)[C@H]1O
Description: purified protein. The following applies: Mg2+. It counts as biochemical, Homo sapiens.

B1: PPIP5K2 (Homo sapiens) (protein)
chain: MSEAPRFFVGPEDTEINPGNYRHFFHHADEDDEEEDDSPPERQIVVGICSMAKKSKSKPMKEILERISLFKYITVVVFEEEVILNEPVENWPLCDCLISFHSKGFPLDKAVAYAKLRNPFVINDLNMQYLIQDRREVYSILQAEGILLPRYAILNRDPNNPKECNLIEGEDHVEVNGEVFQKPFVEKPVSAEDHNVYIYYPTSAGGGSQRLFRKIGSRSSVYSPESNVRKTGSYIYEEFMPTDGTDVKVYTVGPDYAHAEARKSPALDGKVERDSEGKEVRYPVILNAREKLIAWKVCLAFKQTVCGFDLLRANGQSYVCDVNGFSFVKNSMKYYDDCAKILGNIVMRELAPQFHIPWSIPLEAED
As a reminder, the Km is the substrate concentration at which the rate is half of its maximum. As a reminder, the kcat is the maximal rate divided by the concentration of active sites. What is called kcat/Km is the second-order rate constant that governs catalysis at low substrate concentration. For B1, the Michaelis-Menten constant (Km) is 5.2 ± 1.5 µM, the kcat was 0.002 s⁻¹ and the specificity constant (kcat/Km) amounted to 370 M⁻¹ s⁻¹.
